Experimental data taken from patent US20220081480A1 (Merck KGaA, published 2022).
Several values for one entry are separate records, joined by “and”; a condition that tells them apart may be missing. Equal entries are not always repeated. Where two headings read alike, the source gives them in different places.

How the values were obtained:
[1] = biological target: T1, human TIM-3 ECD with 6-His tag (hu TIM-3-His6) (human, UniProt Q8TDQ0 22-200); assay: SPR (Biacore)
T1 construct: Novoprotein Cat# C356; the entry includes the His tag; also called hTIM3-His; human TIM3-His6

cyno TIM-3-His6 [2] = biological target: T2, cyno TIM-3-His6 (cynomolgus monkey); assay: SPR (Biacore)
T2 construct: Made in HEK293 cells; not shown: 6-His tag
T2 chain: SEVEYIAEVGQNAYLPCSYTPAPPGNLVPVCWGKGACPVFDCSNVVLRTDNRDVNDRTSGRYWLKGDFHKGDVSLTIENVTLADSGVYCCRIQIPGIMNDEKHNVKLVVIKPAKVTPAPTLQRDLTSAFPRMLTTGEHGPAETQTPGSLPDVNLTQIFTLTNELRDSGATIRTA

[3] = biological target: T3, human TIM-3 on huTIM-3-CHO-S cells (human, UniProt Q8TDQ0 22-202); assay: flow cytometry on CHO-S-hTIM3 cells
T3 construct: Membrane-anchored human TIM-3 ECD (NP_116171) stably expressed on CHO-S cells; also called CHO-S-hTIM3; CHO-S-hTIM-3; not shown: membrane anchor of the expression vector, not described

[4] = biological target: T3, human TIM-3 on huTIM-3-CHO-S cells; assay: FACS on CHO-S-hTIM-3 cells
[5] = biological target: T3, human TIM-3 on huTIM-3-CHO-S cells; assay: cell-based or functional assay
[6] = biological target: T1, human TIM-3 ECD with 6-His tag (hu …); assay: SPR, antibody captured, TIM-3 as analyte
cyno TIM-3-His6 [7] = biological target: T2, cyno TIM-3-His6; assay: SPR, antibody captured, TIM-3 as analyte
[8] = biological target: T1, human TIM-3 ECD with 6-His tag (hu …); assay: SPR (Biacore), relative to 3903E11 (VH1.0, VL1.0)
[9] = biological target: T4, cyno TIM-3 on cynoTIM-3-Expi293F cells (cynomolgus monkey); assay: flow cytometry on 293F-cynoTIM-3 cells
T4 construct: Membrane-anchored cyno TIM-3 ECD (XP_005558438) transiently expressed on Expi293F cells; not shown: membrane anchor of the expression vector, not described
T4 chain: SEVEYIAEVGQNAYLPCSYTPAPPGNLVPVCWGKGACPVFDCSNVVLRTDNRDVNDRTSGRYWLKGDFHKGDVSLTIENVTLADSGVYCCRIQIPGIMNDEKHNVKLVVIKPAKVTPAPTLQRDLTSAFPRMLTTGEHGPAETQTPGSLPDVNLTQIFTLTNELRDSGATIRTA

[10] = biological target: T1, human TIM-3 ECD with 6-His tag (hu …); assay: ELISA, antigen coated
cyno TIM-3-His6 [11] = biological target: T2, cyno TIM-3-His6; assay: ELISA, antigen coated
cyno TIM-3-muFc = biological target: T5, cyno TIM-3-muFc (cynomolgus monkey); assay: ELISA, antigen coated
T5 construct: Made in HEK293 cells; also called cyno TIM3-mFc; not shown: murine Fc
T5 chain: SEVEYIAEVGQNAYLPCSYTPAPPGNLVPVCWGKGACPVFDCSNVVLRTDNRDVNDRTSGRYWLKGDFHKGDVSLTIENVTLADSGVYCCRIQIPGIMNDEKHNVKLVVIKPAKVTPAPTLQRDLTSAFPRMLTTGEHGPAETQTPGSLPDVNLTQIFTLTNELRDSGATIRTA

[12] = biological target: T6, human TIM-3 ECD fused to human IgG1 Fc domain (huTIM-3-Fc) (human, UniProt Q8TDQ0 22-202); assay: competition ELISA: huTIM-3-Fc-biotin (0.5 µg/ml) binding to coated galectin-9
T6 construct: extracellular domain; Bought; Biotinylated (Sulfo-NHS-LC-Biotin) in the galectin-9 ELISAs; also called Human-TIM3-biotin; huTIM-3-Fc-biotin; not shown: human IgG1 Fc domain

FcRn = FcRn (UniProt P55899 24-297; P61769 21-119, limits assumed); assay: BLI (Octet), steady state
[13] = biological target: T7, wild-type TIM-3 (hu TIM-3), HEK-expressed (human, UniProt Q8TDQ0 22-202, limits assumed); assay: SPR
T7 construct: Soluble protein of the mutagenesis study

FCγRIIIa (CD16a)_V158 [14] = biological target: T8, FCγRIIIa (CD16a)_V158 (UniProt P08637 17-208); assay: BLI (Octet), antibody on FAB2G tips
T8 construct: Bought

FCγRIIa (CD32a)_H131 [15] = biological target: T9, FCγRIIa (CD32a)_H131 (UniProt P12318 36-218, limits assumed); assay: BLI (Octet), antibody on FAB2G tips
T9 construct: Bought
T9 sequence (looked up): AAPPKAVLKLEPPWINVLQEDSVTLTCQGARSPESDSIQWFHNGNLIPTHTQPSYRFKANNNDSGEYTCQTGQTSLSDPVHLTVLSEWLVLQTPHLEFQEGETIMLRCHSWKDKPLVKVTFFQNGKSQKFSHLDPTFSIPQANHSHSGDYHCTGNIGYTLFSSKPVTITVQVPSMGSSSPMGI

FCγRI (CD64) [16] = biological target: T10, FCγRI (CD64) (UniProt P12314 16-288); assay: BLI (Octet), antibody on FAB2G tips
T10 construct: Bought

[17] = biological target: T7, wild-type TIM-3 (hu TIM-3), …; assay: SPR; remark: listed apart in the source
[18] = biological target: T6, human TIM-3 ECD fused to human IgG1 Fc …; assay: ELISA: plate-bound rhTIM-3-Fc pre-incubated with antibody, His-tagged CEACAM1 detected
[19] = biological target: T11, human TIM-3 on primary human blood cells (CD14+ monocytes in whole blood; PBMCs) (human, UniProt Q8TDQ0 22-301); assay: target occupancy on CD14+ monocytes in human whole blood, flow cytometry; free TIM-3 detected with competing anti-TIM-3(2E2)-APC
T11 construct: whole, on cells; Endogenous receptor on donor cells; also called TIM-3 on CD14+ monocytes

[20] = biological target: T11, human TIM-3 on primary human blood …; assay: flow cytometry on fresh human whole blood, CD14+ monocytes; unoccupied TIM-3 detected with the competing anti-TIM-3 (2E2)-APC; donors KP46231, KP46315, KP46318 (not separated)
[21] = biological target: T11, human TIM-3 on primary human blood …; assay: flow cytometry on fresh human whole blood, CD14+ monocytes; unoccupied TIM-3 detected with the competing anti-TIM-3 (2E2)-APC; donor KP46233
FCγRIIIa (CD16a)_V158 [22] = biological target: T8, FCγRIIIa (CD16a)_V158; assay: BLI (Octet), steady state
FCγRIIa (CD32a)_H131 [23] = biological target: T9, FCγRIIa (CD32a)_H131; assay: BLI (Octet), steady state
[24] = biological target: T12, marmoset TIM-3 ECD with 6-His tag (marmoset TIM-3-His6) (marmoset); assay: ELISA, antigen coated
T12 construct: Novoprotein Cat# CM64; the entry includes the His tag
T12 chain: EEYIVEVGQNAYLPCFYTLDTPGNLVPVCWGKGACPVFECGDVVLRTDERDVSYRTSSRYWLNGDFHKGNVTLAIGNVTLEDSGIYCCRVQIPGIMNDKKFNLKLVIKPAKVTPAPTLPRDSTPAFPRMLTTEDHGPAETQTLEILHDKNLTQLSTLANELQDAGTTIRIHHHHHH

[25] = biological target: T1, human TIM-3 ECD with 6-His tag (hu …); assay: ELISA, antigen coated; remark: listed apart in the source
cyno TIM-3-His6 [26] = biological target: T2, cyno TIM-3-His6; assay: ELISA, antigen coated
[27] = biological target: T6, human TIM-3 ECD fused to human IgG1 Fc …; assay: competition ELISA: huTIM-3-Fc-biotin (1 µg/ml) binding to coated galectin-9
[28] = biological target: T12, marmoset TIM-3 ECD with 6-His tag …; assay: SPR, antibody captured, TIM-3 as analyte
[29] = biological target: T1, human TIM-3 ECD with 6-His tag (hu …); assay: SPR, antibody captured, TIM-3 as analyte; remark: listed apart in the source
cyno TIM-3-His6 [30] = biological target: T2, cyno TIM-3-His6; assay: SPR, antibody captured, TIM-3 as analyte
[31] = biological target: T3, human TIM-3 on huTIM-3-CHO-S cells; assay: flow cytometry on CHO-S-hTIM-3 cells
FCγRI (CD64) [32] = biological target: T10, FCγRI (CD64); assay: BLI (Octet), antibody on FAB2G tips, kinetic fit

B1: Parental Antibody 3903E11 (VL1.0, VH1.0) (antibody, human IgG1, lambda)
heavy: not shown
light: SYELTQPRSVSGSPGQSVTISCTGTSSDVGGYNYVSWYQQHPGKAPKLMIFDVSKRPSGVPDRFSGSKSGNTASLTISGLQAEDEADYYCSSYADSVVFGGGTKVTVLGQPKAAPSVTLFPPSSEELQANKATLVCLISDFYPGAVTVAWKADSSPVKAGVETTTPSKQSNNKYAASSYLSLTPEQWKSHKSYSCQVTHEGSTVEKTVAPTECS
notes: Human IgG1 (IgG1m3), lambda light chain; also called 3903E11 (VH1.0, VL1.0)
[1]
  Kd: 3.5 nM
Cyno TIM-3-His6 [2]
  Kd: 6.9 nM
[3]
  EC50: 0.9 nM
[4]
  MFI at 0.1 µg/ml: 137 MFI
  MFI at 1 µg/ml: 1390 MFI
  MFI at 10 µg/ml: 1490 MFI
[5]
  ADCC (51Cr release), Donor 1, EC50: 0.24 nM
  ADCC (51Cr release), Donor 2, EC50: 0.11 nM
[6]
  Kd: 3.8 nM
Cyno TIM-3-His6 [7]
  Kd: 12 nM
[8]
  Human TIM3 KD Ratio to Parent: 1
[9]
  EC50: 2 nM
[10]
  EC50: 0.01 nM
Cyno TIM-3-His6 [11]
  EC50: 0.01 nM
Cyno TIM-3-muFc
  EC50: 0.01 nM

B2: anti-TIM-3-3903E11(VL1.3,VH1.2)-IgG2h(FN-AQ,322A)-delK (antibody)
heavy: not shown
light: QSALTQPRSVSGSPGQSVTISCTGTSSDVGGYNYVSWYQQHPGKAPKLMIYDVSKRPSGVPDRFSGSKSGNTASLTISGLQAEDEADYYCSSYADSVVFGGGTKVTVLGQPKAAPSVTLFPPSSEELQANKATLVCLISDFYPGAVTVAWKADSSPVKAGVETTTPSKQSNNKYAASSYLSLTPEQWKSHKSYSCQVTHEGSTVEKTVAPTECS
notes: Effector-negative engineered IgG2 with IgG1 hinge (C220S), F296A, N297Q, K322A, C-terminal Lys deleted; lambda light chain; also called M6903; copies: 2 + 2
[12]
  IC50: 7.46 nM
FcRn
  Kd: 850 nM
[13]
  Kd: 6.2 nM
FCγRIIIa (CD16a)_V158 [14]
  binding result: no binding (tested: 4000 nM to 62.5 nM)
FCγRIIa (CD32a)_H131 [15]
  binding result: no binding (tested: 4000 nM to 62.5 nM)
FCγRI (CD64) [16]
  binding result: no binding (tested: 100 nM to 1.56 nM)
[17]
  Kd: 5.7 nM
[18]
  IC50: 0.353 nM and 0.053 µg/mL

B3: anti-TIM-3 (A16-019-1) (antibody)
heavy: not shown
light: QSALTQPRSVSGSPGQSVTISCTGTSSDVGGYNYVSWYQQHPGKAPKLMIYDVSKRPSGVPDRFSGSKSGNTASLTISGLQAEDEADYYCSSYADSVVFGGGTKVTVLGQPKAAPSVTLFPPSSEELQANKATLVCLISDFYPGAVTVAWKADSSPVKAGVETTTPSKQSNNKYAASSYLSLTPEQWKSHKSYSCQVTHEGSTVEKTVAPTECS
notes: Said to be identical to M6903 but produced in Expi293F, not CHOK1SV, cells
[19]
  EC50: 0.111 µg/mL
[20]
  EC50 (read off the curve): ~0.07 µg/mL
[21]
  EC50 (read off the curve): ~0.04 µg/mL

B4: 3903E11 (VL1.3,VH1.2) IgG1 (antibody)
heavy: not shown
light: QSALTQPRSVSGSPGQSVTISCTGTSSDVGGYNYVSWYQQHPGKAPKLMIYDVSKRPSGVPDRFSGSKSGNTASLTISGLQAEDEADYYCSSYADSVVFGGGTKVTVLGQPKAAPSVTLFPPSSEELQANKATLVCLISDFYPGAVTVAWKADSSPVKAGVETTTPSKQSNNKYAASSYLSLTPEQWKSHKSYSCQVTHEGSTVEKTVAPTECS
notes: also called 3903E11 (VH1.2, VL1.3); anti-TIM3-3903E11(VL1.3, VH1.2)-IgG1; copies: 2 + 2
[1]
  Kd: 1.6 nM
Cyno TIM-3-His6 [2]
  Kd: 5.3 nM
FCγRIIIa (CD16a)_V158 [22]
  Kd: 100 nM
FcRn
  Kd: 805 nM
FCγRIIa (CD32a)_H131 [23]
  Kd: 630 nM
[24]
  EC50: 0.01 nM
[25]
  EC50: 0.01 nM
Cyno TIM-3-His6 [26]
  EC50: 0.02 nM
[4]
  MFI at 0.1 µg/ml: 140 MFI
  MFI at 1 µg/ml: 1310 MFI
  MFI at 10 µg/ml: 1910 MFI
[27]
  IC50: 2.4 nM
[28]
  Kd: 11 nM
[29]
  Kd: 2.4 nM
Cyno TIM-3-His6 [30]
  Kd: 14 nM
[31]
  EC50: 2.6 nM
FCγRI (CD64) [32]
  Kd: 1.7 nM
